# Test results reported in the supplement of paper PMC9170038.
# Tested on: K4 kissing-loop RNA reporter
# Test: apparent KD of K4 kissing-loop reporter; higher = weaker reporter binding
# Conditions: Eterna round: R107; input ligand: theophylline 20 uM
# Description: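 RNA-MaP round R107: designed RNA switches with theophylline, tryptophan, arginine or FMN aptamers are transcribed on-chip within common flanks. They are titrated with a labelled K4 kissing-loop RNA reporter in RNA-MaP buffer (100 mM Tris pH 7.5, 80 mM KCl, 4 mM MgCl2), without ligand or with the indicated ligand. Median apparent KD per design.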
# 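Also: bound reporter read as fluorescence of individual clusters on recovered sequencing chips by microscopy, with normalized cluster intensities fitted with a binding model.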
row,Sequence,apparent KD of K4 kissing-loop reporter
1,UUACUACCCAGUGAUGUUGGGUAGCGGCGGCGAGGACCGGUACGGCCGCCACUCGGCGCACGGGAGUGAUGUUCCUACCGUUAGG [Same state Tryptophan A GF 8],747 nM
2,UGAUACCAGACUGAUACCAGCCAGUGAUGUUGGCUAAAACCAAAAGCUGGCAAAGCCAGCGGCCCUUGGCAGCAGUCUGGUAUCU [TheoBX 1 #SwitchBubble #StaticStem],1010 nM
3,AAAUUUUAAAGUGAUACCAGACAUCUCAAUUACAUUAAUAAAGCUAAGUGAUGUUUAGCAGUCCCUUGGCAGCACAAUUUAAUUA [JR_SSTheophyB_Sub011],447 nM
4,AAUAAAAUCACGGCCGCCACUGAAUAAUUACGAAGUAGUGAUGUUACUUCACAUAUCUUAUUUAACAGGACCGGGUGAAUAUUUA [#16 K4 Tryptophan B Exclusion],65.1 nM
5,UCUAACAAAUCGGCCGCCACUGAAAUAACCCAGGAGUGAUGUUCCAUCGUCCUAGACUACUCUUCCAGGACCGGGAUCUGUGUUC [theeternabot_exclusion_KL_Trp_B_25],472 nM
6,GGUGACAACCAGAGGUGAUGUAUAGUAUCGCGAGGACCGGUACGGCCGCCACUCGUGAAGAGAAAGGAGUGAUGUUCCGUAAUGG [Kazoo C7],390 nM
7,GCAAUCCCGGCGGCCGCCACUUUCAUACCAGUGAUGUUGAGUAGGAAAUGGAAUAUGCGCUGAAUAAGGACCGGGCCUAAGGAGA [theeternabot_exclusion_KL_Trp_B_47],255 nM
8,GGAGGGAUCUCGGCCGCCACUCGUAAGAAAUGGGCCUCAGGGAUAUAGUGAUGUUAUGUAAAGAAGAGGACCGGGAGAAAGAAGG [ExTryptoB.Dd],306 nM
9,UUUCUUUUUUUGAUGUUUUUUGUAUAAUGGCAGGAUAUCGUAGAUGCGAGAAGGGCUUUUAUGCGUUAUGAGUGAUGUUUGUAGG [aaxazvmullin],272 nM
10,CUAUGGAAACAUAGUGAUCGGGAAACCGAUACCAGUAUGGAAACAUACCCUUGGCAGCGGAAUGAUCUAACGGAGUGAUGUUCCG [Theophylline A K4 23],389 nM
11,UUUUAAAUGUCUGAUACCAGAGAAAAUAUAUGUAGUGAUGUUAUAUACAAAUUGAAUAAGCUCCCUUGGCAGCAGUAUUAAUUUU [AstrosExc-TheB#11],662 nM

# Same assay, conditions: Eterna round: R107; input ligand: tryptophan 2.4 mM
row,Sequence,apparent KD of K4 kissing-loop reporter
1,AAGUGUCAUUAGACACAGACUACAAUACACUAGGAUAUGCUGAUAAGCAGAAGGAGUGAUGUUCCUUUCAAGUAGUCAAUUAAAU [FmnAX 21 Mat Inspired #SwitchBubble #StaticStem #K4Late],140 nM
2,GGAUCCACCAGUGAUGUUGGAGAAAACUUCAAGGAUAUGACGAAAGUCAGAAGGUGGUAGACUGGACAAAGUCCGGUGGGAUCCA [FmnA10 U29+G78],198 nM
3,GGCAUAGUCUCAACGUGUGGUUGGGUUGGGAAGGAUAUUUGAUCGAAAAGAAGGUCCCGCAUUGAGUGAUGUUCAAGGGCUCCAA [theeternabot_exclusion_KL_FMN_A_26],246 nM
4,CCAGGAUGAUGAGGAUGAUGAAUUACUGAAGGAGCGCAUAUGGUUGCAGGUAGGUCGCGGUGAAUAAGUAUAGUGAUGUUAUGCC [SSArgA.X],427 nM
5,GCCGUAGAUGGAAGGAGCGUGGUGGACUCGUGAAGUGAUGUUUCAAGUCGAUAUGCCCAACCACAGGUAGGUCGCCAUCUACGGC,174 nM
6,GUAGGAUGAGGAGGAGGAUGAAUUACUGAAGGAGCGCAUAUAAAUGCAGGUAGGUCGCGGUAAAGAAGUAUAGUGAUGUUAUAUA [SSArgA.G],329 nM
7,UGGUGCCAUUGGCGGGUAGAUAGUGGUGGCAAGGAUAUGUGAGCGAACAGAAGGUGCAUCAAGUUCAGUGAUGUUGGGCUCGAUU [theeternabot_sameState_KL_FMN_A_20],234 nM
8,AUCGAUAUCAGAGGAUAUGCUUAAUUGAUUUAUUAUUAUUUAUUAUGCAGUGAUGUUGCAUUUUUUGCAGAAGGCUGAUUUCGAA [JR_SSFMNB_Sub022],117 nM
9,UGUCAUGGAAACAUGAACGUUGAUGUUCGACGAGGACCGGUACGGCCGCCACUCGAGUAAUAGUCAGUGAUGUUGACUGGGCUAA [KL-SSTryp-A form1 sub2],140 nM
10,UAUAUAGUGACGGCCGCCACUAUAUUAAUGUUUUUGUUAGAGUGAUGUUUUGAUUAAUAUUUUUAUAGGACCGGGUUAUAUGUUA [xzzxmullin],558 nM
11,ACAGCGAGCAUUAACGCGCUCGCAGGUUGCAAGGAUAUAUUUCGUCAUAGAAGGUGCUAGACCAUAAGUGAUGUUUGUGGAUAUA [theeternabot_sameState_KL_FMN_A_16],525 nM
12,AGGCAAUAUGCGGCCGCCACUUUCAGUGAUGUUGAGACGCGGAAUGUUGUAUAAUAUCGCCACGAAAGGACCGGGCAAGGGAAAG [theeternabot_exclusion_KL_Trp_B_5],355 nM
13,GGCAGUGAUGUUGCCAGUGGCAGAUUGGAAGGAGCGUGGUGAGACACAGGUAGGUCGCUAAUUGAAGUUGCUGUCACUAAAAUGC [whbob_Ex_Arginine_A_2t131],241 nM
14,GGAGGCUAUGCAGGAUAUAGUCGGUUGAGUGAUGUUUAACGACUAAACCUUCUAAGUCACAGCCCGCUAGAAGGGCAUAGCCUCC,266 nM
15,GCAUCGAUGGCAGGAUAUAGGUUCGUGGAGUGAUGUUCCAUAGCCCGAGUGAUGUUCGUUAUCCGCCUAGAAGGGCCGUGGAUGC [whbob_Ex_FMNB__2th215],244 nM
16,CAGAACUUAUAUAGAAACUAUAUAAGAGAUACCAGUCAAAUUAAAGACCCUUGGCAGCUCAGGCGAGUGAUGUUCGCAGGCUAAC [Astros-Gfrank-modulation#1],78.8 nM
17,GGCUUGCCAGUGAUGUUGGCAUAAACUGAAGGAGCGCGUGAAAACGCAGGUAGGUCGCAGAACCUUGCCAACUAUUUUAUUUGCC [Ex Arginine A K4 24],210 nM
18,GGGUCAGUCUGAAGGAGCGGCCAGACAGAGCAGUGAUGUUGCUCCUCCGGAAACGGUGUCGGCCAGGUAGGUCGCAGAUUGGCUC [Dienralais mod v1],124 nM
19,UGUCAUUGGUCGGCCGCCACUUCGUGUGGAGUGAUGUUUUGUAGGUUGUGUUGAAAGGUAUGGUGAAGGACCGGGACCGAUGACU [FiskerMod 20 - Jieux - Same State - Tryptophan B],525 nM
20,AUGUCUGAUAGCAGUGAUGUUGCUUCGGAUACCAGACGAGAUCAUGUCCCUUGGCAGCUGACACGGCACGUGCUAGGUUAGAUGA [whbob_Ex_Theo_A_th72],113 nM
21,AGUAGUUGGACGGCCGCCACUAGAACGCCUUUGCCAAAGGCAGAGGACUAGAGUGAUGUUCUAGCUAGGACCGGGUCCAACUACA [Omei KL Tryp B SS A v4],1220 nM

row,Sequence,apparent KD of K4 kissing-loop reporter
1,AAGUGUCAUUAGACACAGACUACAAUACGCUAGGAUAUGCUGAUAAGCAGAAGGAGUGAUGUUCCUUUCAAGUAGUCAAUUAAAU [FmnAX 22 Mat Inspired #SwitchBubble #StaticStem #K4Late],124 nM
2,CUGGGUUGACGAAAAGUCAACAAAUGAGAAGGAGCGCACGAAAGUGCAGGUAGGUCGCUCAGUCCAGUGAUGUUGGAUCAUCCAG [#SwitchBubble 10 #K4Late],361 nM
3,GGAGAGAACUGAAGGAGCGGCAAGAGAGAAGGAAAUAUAGUGAUGUUAUAUAAGAGAGAGAGCCAGGUAGGUCGCAGAGGGAGGA [ExArgB.A],149 nM
4,AGAACUGUCUGGGAUACCAGCCGAGGAGUGAUGUUCCGGCUCGACGAAACGUCGAGCCACGGCCCUUGGCAGCUCAGACAGUUCA [#21 K4 Theophylline B Same State],759 nM
5,UUUUAAAUGUCUGAUACCAGAGAAAAUUUAUGUAGUGAUGUUAUAUACAAAAUAAAUAAGCUCCCUUGGCAGCAGUAUUAAUUUU [AstrosExc-TheB#7],442 nM
6,AGGGAUGAUGGAUAAAUAAACAAAAGGGAUACCAGUCAAAUAAUAGGCCCUUGGCAGCUUUAGAUCAGUGAUGUUGAAGAUAUUG [Theophylline A Same State; Euphoria Solution],78.5 nM
7,CCUAUCUCAUACGAUACCAGUCGUCGAGUGAUGUUCGAUUAAAUAUAUUUGCCAAAUAACGACCCUUGGCAGCGUAUGGGAUAGG [Ex Theophylline B K4 17],314 nM
8,GUACGGCGGGCGGCCGCCACUGGUAUACGAGUGAUGUUCGGAUAUACGUGAUGUAUGGUAAUUAACAGGACCGGGUCAGGGCCGG [whbob_SS_Tryp_B_t23],119 nM
9,AUUUAUUCGAGUGAUGUUCGUGAUUUUUCAGAGGAUAUGCGUAAUAGCAGAAGGCUGUAUUUAUAUAUAUUUUGAUUUUUUUAAA [JR_Nu3_ExcFMNA_Sub024],61.8 nM
10,CGAGUGAUGUUCGUUUAUUACUCUGUUUGACAGGAUAUGCGGAAACGCAGAAGGGUCACCUUUGAGUUAGACGGAGUUAUUUUUU [Ex FMN A 22],323 nM
11,UUACUACCCAGUGAUGUUGGGUAGCGGCGGCGAGGACCGGUACGGCCGCCACUCGGCGCACGGGAGUGAUGUUCCUACCGUUAGG [Same state Tryptophan A GF 8],294 nM
12,UGAUACCAGACUGAUACCAGCCAGUGAUGUUGGCUAAAACCAAAAGCUGGCAAAGCCAGCGGCCCUUGGCAGCAGUCUGGUAUCU [TheoBX 1 #SwitchBubble #StaticStem],667 nM
13,AAAUUUUAAAGUGAUACCAGACAUCUCAAUUACAUUAAUAAAGCUAAGUGAUGUUUAGCAGUCCCUUGGCAGCACAAUUUAAUUA [JR_SSTheophyB_Sub011],281 nM
14,AAUAAAAUCACGGCCGCCACUGAAUAAUUACGAAGUAGUGAUGUUACUUCACAUAUCUUAUUUAACAGGACCGGGUGAAUAUUUA [#16 K4 Tryptophan B Exclusion],81.8 nM
15,UCUAACAAAUCGGCCGCCACUGAAAUAACCCAGGAGUGAUGUUCCAUCGUCCUAGACUACUCUUCCAGGACCGGGAUCUGUGUUC [theeternabot_exclusion_KL_Trp_B_25],284 nM
16,GGUGACAACCAGAGGUGAUGUAUAGUAUCGCGAGGACCGGUACGGCCGCCACUCGUGAAGAGAAAGGAGUGAUGUUCCGUAAUGG [Kazoo C7],138 nM
17,GCAAUCCCGGCGGCCGCCACUUUCAUACCAGUGAUGUUGAGUAGGAAAUGGAAUAUGCGCUGAAUAAGGACCGGGCCUAAGGAGA [theeternabot_exclusion_KL_Trp_B_47],210 nM
18,GGAGGGAUCUCGGCCGCCACUCGUAAGAAAUGGGCCUCAGGGAUAUAGUGAUGUUAUGUAAAGAAGAGGACCGGGAGAAAGAAGG [ExTryptoB.Dd],209 nM
19,UUUCUUUUUUUGAUGUUUUUUGUAUAAUGGCAGGAUAUCGUAGAUGCGAGAAGGGCUUUUAUGCGUUAUGAGUGAUGUUUGUAGG [aaxazvmullin],256 nM
20,CUAUGGAAACAUAGUGAUCGGGAAACCGAUACCAGUAUGGAAACAUACCCUUGGCAGCGGAAUGAUCUAACGGAGUGAUGUUCCG [Theophylline A K4 23],496 nM
21,UUUUAAAUGUCUGAUACCAGAGAAAAUAUAUGUAGUGAUGUUAUAUACAAAUUGAAUAAGCUCCCUUGGCAGCAGUAUUAAUUUU [AstrosExc-TheB#11],493 nM
